The source of these data is IntAct's records for PubMed 29187380.

In test [1] the target is dock7_human DOCK7 (UniProt Q96N67).
For test [2], the target named is vac14_human VAC14 (UniProt Q08AM6).
UniProt Q08AM6, sequence (Q08AM6 whole entry): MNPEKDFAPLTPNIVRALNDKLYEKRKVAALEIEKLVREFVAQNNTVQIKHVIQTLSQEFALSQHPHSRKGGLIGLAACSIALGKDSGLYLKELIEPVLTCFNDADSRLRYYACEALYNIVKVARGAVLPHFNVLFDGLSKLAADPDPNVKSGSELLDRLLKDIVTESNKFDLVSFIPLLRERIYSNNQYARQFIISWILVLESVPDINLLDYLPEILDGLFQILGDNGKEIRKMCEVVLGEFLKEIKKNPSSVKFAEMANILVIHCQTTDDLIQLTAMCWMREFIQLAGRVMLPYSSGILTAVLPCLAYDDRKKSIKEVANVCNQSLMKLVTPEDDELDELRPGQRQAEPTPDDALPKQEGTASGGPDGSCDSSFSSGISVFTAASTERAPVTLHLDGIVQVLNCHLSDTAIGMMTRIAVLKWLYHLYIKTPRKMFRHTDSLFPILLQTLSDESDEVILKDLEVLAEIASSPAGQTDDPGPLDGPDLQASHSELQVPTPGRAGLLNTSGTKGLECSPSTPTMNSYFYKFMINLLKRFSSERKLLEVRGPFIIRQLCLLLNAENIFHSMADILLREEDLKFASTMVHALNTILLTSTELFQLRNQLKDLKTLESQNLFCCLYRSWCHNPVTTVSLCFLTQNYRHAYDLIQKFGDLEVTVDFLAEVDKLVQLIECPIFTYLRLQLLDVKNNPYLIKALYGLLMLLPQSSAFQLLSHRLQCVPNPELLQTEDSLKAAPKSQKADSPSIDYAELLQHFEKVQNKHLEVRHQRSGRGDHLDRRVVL

UniProt Q96N67, sequence (Q96N67 whole entry): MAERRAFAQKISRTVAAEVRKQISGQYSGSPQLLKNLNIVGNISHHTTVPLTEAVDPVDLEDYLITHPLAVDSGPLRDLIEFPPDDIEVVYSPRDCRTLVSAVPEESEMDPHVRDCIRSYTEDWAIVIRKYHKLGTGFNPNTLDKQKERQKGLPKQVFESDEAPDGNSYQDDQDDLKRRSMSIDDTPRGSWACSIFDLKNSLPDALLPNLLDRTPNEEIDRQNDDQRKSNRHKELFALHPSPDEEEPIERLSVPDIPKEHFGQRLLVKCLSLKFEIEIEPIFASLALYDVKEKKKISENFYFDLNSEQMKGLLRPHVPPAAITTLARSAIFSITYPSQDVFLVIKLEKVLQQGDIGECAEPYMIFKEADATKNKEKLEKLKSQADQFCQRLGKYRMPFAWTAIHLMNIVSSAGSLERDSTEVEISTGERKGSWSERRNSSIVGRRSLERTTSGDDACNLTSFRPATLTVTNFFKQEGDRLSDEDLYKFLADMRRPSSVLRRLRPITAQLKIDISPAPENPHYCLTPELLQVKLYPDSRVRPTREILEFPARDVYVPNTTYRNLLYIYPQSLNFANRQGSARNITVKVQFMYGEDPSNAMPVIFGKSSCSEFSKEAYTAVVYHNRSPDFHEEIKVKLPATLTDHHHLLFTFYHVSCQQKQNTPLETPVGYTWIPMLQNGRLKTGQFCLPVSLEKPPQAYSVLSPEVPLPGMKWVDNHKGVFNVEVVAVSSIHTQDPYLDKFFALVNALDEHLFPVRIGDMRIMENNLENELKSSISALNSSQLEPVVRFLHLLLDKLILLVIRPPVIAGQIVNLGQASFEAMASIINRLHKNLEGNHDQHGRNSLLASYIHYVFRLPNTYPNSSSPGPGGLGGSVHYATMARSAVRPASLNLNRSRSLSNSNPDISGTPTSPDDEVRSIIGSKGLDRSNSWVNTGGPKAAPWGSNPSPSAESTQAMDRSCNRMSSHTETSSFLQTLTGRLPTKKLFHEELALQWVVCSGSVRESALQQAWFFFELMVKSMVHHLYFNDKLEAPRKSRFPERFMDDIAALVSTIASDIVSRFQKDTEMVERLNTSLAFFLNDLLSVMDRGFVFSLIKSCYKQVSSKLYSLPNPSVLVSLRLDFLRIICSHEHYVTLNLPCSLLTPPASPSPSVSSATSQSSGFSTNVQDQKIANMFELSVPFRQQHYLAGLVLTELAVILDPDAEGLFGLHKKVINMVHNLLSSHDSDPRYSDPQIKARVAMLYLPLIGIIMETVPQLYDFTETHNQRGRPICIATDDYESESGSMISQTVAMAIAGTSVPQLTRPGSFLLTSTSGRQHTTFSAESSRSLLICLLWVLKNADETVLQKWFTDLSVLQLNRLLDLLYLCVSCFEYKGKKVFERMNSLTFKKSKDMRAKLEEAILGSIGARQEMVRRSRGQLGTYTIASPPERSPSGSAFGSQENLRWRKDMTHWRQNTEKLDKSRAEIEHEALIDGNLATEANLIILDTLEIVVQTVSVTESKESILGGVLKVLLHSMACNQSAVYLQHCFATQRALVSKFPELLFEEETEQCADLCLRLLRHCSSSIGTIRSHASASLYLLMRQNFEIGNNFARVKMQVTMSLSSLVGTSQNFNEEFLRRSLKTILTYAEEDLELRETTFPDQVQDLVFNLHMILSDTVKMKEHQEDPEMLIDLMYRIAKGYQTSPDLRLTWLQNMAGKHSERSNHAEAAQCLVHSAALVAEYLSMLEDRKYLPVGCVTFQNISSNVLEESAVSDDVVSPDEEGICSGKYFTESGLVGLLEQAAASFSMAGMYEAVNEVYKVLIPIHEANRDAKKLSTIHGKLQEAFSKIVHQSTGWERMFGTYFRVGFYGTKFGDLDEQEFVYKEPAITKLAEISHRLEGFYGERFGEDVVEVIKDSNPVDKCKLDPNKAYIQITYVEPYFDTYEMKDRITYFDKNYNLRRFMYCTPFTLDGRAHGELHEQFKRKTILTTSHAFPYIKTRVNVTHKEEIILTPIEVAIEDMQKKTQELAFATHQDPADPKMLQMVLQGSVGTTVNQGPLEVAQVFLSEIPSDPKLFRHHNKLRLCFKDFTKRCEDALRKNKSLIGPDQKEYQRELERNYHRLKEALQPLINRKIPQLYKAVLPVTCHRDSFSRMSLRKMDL

With “Neurobeachin-like protein 2 (Homo sapiens), Q6ZNJ1 G2290W;E2294G”, the “effect of a mutation on the interaction” value in test [1] and in test [2] was “decreasing interaction strength” throughout.

In the case of “Neurobeachin-like protein 2 (Homo sapiens), Q6ZNJ1 M2080K”, the “effect of a mutation on the interaction” value in test [1] is “with no effect”; in test [2], “decreasing interaction strength”.

Take “Neurobeachin-like protein 2 (Homo sapiens), Q6ZNJ1 P2100L”: the “effect of a mutation on the interaction” value is recorded as “disrupting interaction strength” in test [1] and “decreasing interaction strength” in test [2].

For the substance “Neurobeachin-like protein 2 (Homo sapiens), Q6ZNJ1 R2172H”, the “effect of a mutation on the interaction” value is on record as “disrupting interaction strength” in test [1] and “with no effect” in test [2].

“Neurobeachin-like protein 2 (Homo sapiens), Q6ZNJ1 S2269L”: the entries for the “effect of a mutation on the interaction” value in test [1] and in test [2] were “with no effect” and “increasing interaction strength”, respectively.
